Results taken from the DeepSol protein solubility set.

Test: soluble on expression in E. coli; label from the status in PepcDB or PDB records

Sequence | soluble on expression in E. coli
MGSDKIHHHHHHMILCCGEALIDMLPRETTLGEKGFSPYAGGAVFNTGIALGRLGVASGFFTGLSDDMMGDILRDTLRASHVDFSYCATLSRPTTIAFVKLVDGHATYAFYDENTAGRMITEADLPALGEDCEALHFGAISLIPEPCGSTYEALLNREHKTRVISLDPNIRPGFIKDKAAHMARIRRMAALSDIVKFSDEDLAWFGLDGDEDTLARHWLHHGAKLVVVTRGADGAVGYTADHKVEVPSEKVTVVDTVGAGDTFDAGVLASLKMQNLLTKQQVAKLTEEQIAKALALGSKAAAVTVSRAGANPPFAHEIGL | not soluble
GMADLTHEFWDRLEDVRSGMLGIKGQGRLIPMSPQTDDDAPGAIWFITAKGTDLAKGVAAGPQPAQFVVSDDGEGLYADLDGTLERSTDREALDEFWSFVADAWFDGGQHDPDVCLLKFTPASGEISITEGGGARFLYEIAKAHLTDETPDMGEQATVTF | soluble
IREAIARNPQEIFQYVRLSQVKRDDKVLGYRVSPGKDPVLFESIGLQDGDMAVALNGLDLTDPNVMNTLFQSMNEMTEMSLTVERDGQQHDVYIQF | not soluble
MCLNFREDNVMKKIMVIFGTRPEAIKMAPLVKEIDHNGNFEANIVITAQHRDMLDSVLSIFDIQADHDLNIMQDQQTLAGLTANALAKLDSIINEEQPDMILVHGDTTTTFVGSLAAFYHQIPVGHVEAGLRTHQKYSPFPEELNRVMVSNIAELNFAPTVIAAKNLLFENKDKERIFITGNTVIDALSTTVQNDFVSTIINKHKGKKVVLLTAHRRENIGEPMHQIFKAVRDLADEYKDVVFIYPMHRNPKVRAIAEKYLSGRNRIELIEPLDAIEFHNFTNQSYLVLTDSGGIQEEAPTFGKPVLVLRNHTERPEGVEAGTSRVIGTDYDNIVRNVKQLIEDDEAYQRMSQANNPYGDGQASRRICEAIEYYFGLRTDKPDEFVPLRHK | not soluble
MDVGKLESFIVEKMAERKVPGISISIIKDGDVVYAKGFGYRNVEARLPSTPETIYGIGSITKSFTALAIMKLVEEGGLSLDDPVEKFVNIKLRPFGEPVTVHHLLTHSSGIPSLGYAEAFIDGMVGGDNWLPVSTPEETIAFARDMEKWAVAKPGERFFYLNTGYVLLGKIIEKVSGVSYEEYIKKKILEPLGMNRSYFFKEEVEKDKDVAMGYILDKEGRLVPQPFPYGITADGGLLSSVLDLAKYLKMYIERDESIVSKEYIEKMETSYIKVPWEIFGGEGYGYGLIIYPNFLGEKLVGHSGSVGMYTGYIGYIPEKKIGVAVLENSSGYPPSYIAMYALALLLGKNPEKELPFIYRERILKKVEGRYMGYKGTIKFEVKVDGDVVYLRALGRAFTYTIPLFPEVLEEDFIKCYTLSNGRKMYAEFYIKDNKVDLIFERYRLIKS | soluble
MGGITMTAVVSNRDKINFHEVADHYHSNKIIFGIKFLKNWALERLASCAPVPSWRAKLHKMRGVNIGENVYIGYDVIFDRIHPEMITVGDYAEIGDRCILSAHSRGSLTTRQAYPRSIAPIKIGRGVSVNPGCIITQGVEIGDNSIIGVGSVVSRNISPNSLALGYPAKVIKKLDG | soluble
MNIRPLHDKLIVERLEVENKSEGGIVLTSQSVKKSNRGKVVAVGLGRPLKNGDRARMEVKTGDQIIFNDGYGVKTEKVDGKEYLILSESDVLAIVE | soluble
MQVASRVKARRLEMNLTQEGIALRAGMKLPTYRRFERTGEISFRGLLQIGFALNALQDFALLFDQRLYQTLDEVLAEQQPKRKRGSKK | not soluble
MNSPFAAETLLFERSRPRPEALRVIYGFPNTYSVGITSLGYQLVWAQLASRADVAVSRLFTDVQEPLPRDPELVGFSFSWELDYGNLLVLLEQLGIPIWQRDRHDCHPLVFGGGPVLTANPEPFADFFDVILLGDAEPLLDPFLTTMAQVRTAARSQRLEALAHVPGIYVPSLYHVSYSHPTGPIQRIEPIKASVPPTVTKQVHRGHTLAASTVVTPLAAWENIYMVEVVRSCPELCRFCLASYLTLPFRTPSLETLIPAIERGLAVTDRLGLLGASITQHPEFPALIEHLGQPQFDHVRVSLASVRTNTVTESLAQLLSQRGSQSLTIAIETGSERLRQVINKKLETEEILAAASHAQAGGLKGLKFYGMVGLPTETDADVAATVDLFCQLKKTAPRLRLTLGCSTFVPKAHTPFQWWGVQPVAEKRLKFLKKELAKLGIEFRPESYNDSLIQALISRGDRRLAPLLEQVRHYGTSLGSYRRAFKERQGQLPDFEAYVNANWPEETVLPWQHLQSGLPTKTLENHLKRAIALEHHHHHH | not soluble
MGSDKIHHHHHHMDGGFMQKKVLLVGLGVMGSRIAANFASAGKLAGVYDRNVDKAKNTASMLKVGFYRDLGEAVKNSDIIVTMLYDDRSVKEVYSQMEQGVQGKVFIDMSTISPDTSIEIAKRIKEKGGKMYDAPVIGTSIAVEKKALVVLVGGDLSGYDEVRDLISATANQVVYMGDNGSGLYAKLVNNLFLGSYMASLAEAVRFGRKNGIPDSTISDVLTKYSSARSPTSDLKVPKMISEDYSVQFSIKNMLKDMEIVDRMASEKRIALPVASLALQLFRYLMDSGYGEEDIAAIYRALR | not soluble
MGSDKIHHHHHHGKEEEGPIPTDRQVPIGVMEASLSTRVSTRGVINTDIYKLGIFRTNANGYPPQYDAPYSYDGAAGWTATTEILVDHRSASLYAYYPYQSVSFADNTTKAILVAQIYDAAKDMCYGSATSADGSGMINNDHKGVRFIDMKHAYARLKLTFVRGTNVMSGRKCKIENIVLKNNSTNFYLQRQVDITTGTITEGTPAAEGYVHNPNVEIASGNQVYEYLLPPQSLTDNKLTISVTVDGEVRTVTVTAFGGTLNAGGYYHVTLTINDVQIVPSAGVTDNGYTSGDDPKNPIQNNTPSVV | not soluble
MLVGLIGYGAIGKFLAEWLERNGFEIAAILDVRGEHEKMVRGIDEFLQREMDVAVEAASQQAVKDYAEKILKAGIDLIVLSTGAFADRDFLSRVREVCRKTGRRVYIASGAIGGLDAIFSASELIEEIVLTTRKNWRQFGRKGVIFEGSASEAAQKFPKNLNVAATLSIASGKDVKVRLVADEVEENIHEILVRGEFGEMEIRVRNRPMRENPKTSYLAALSVTRILRNLKEGLVV | soluble
MSTDLQHIRIGLTNNHPCSYLPERQERVAVALDAELHTEQNYQLLMANGFRRSGDTIYKPHCERCHACQPIRISIPDFVLSRSQKRLLSKAKSLRWEMKTEMDAEWFELYSRYICKRHKNGTMYPPKRDEFSRFAQTTWLTTLFLHIYDESNQLLGVAVTDVMAQCSSAFYTFFEPDYPLSLGTLAVLYQVNYCQQNNEQWLYLGYQIDECPAMNYKTRFQRHQRLVNQRWQGLEHHHHHH | soluble
MREIPLVSVALATYNGERYLRRQLDSVLAQTYRNIEIVVSDDCSRDGTVAILEEYRRAHGITFRVNERNLGFVRNFERALAGCRGEFIALSDQDDIWLPEKIETLVREIGPHSLIYTDALLIDGDDQPLPGSLVEVSGVRPVSGTCFEYFVCNNCVTGCTAMLRRDLLATALPIPEAETYHDWWLAVAASRRNGVVYHAAKLTEYRQHAHNYTGANVRAGLPARIAAHLMGKTAAEKRGYYELLANRARRYRAMADRLNLTPAERSFLEEIGEYAESLLSGGNRMKTFALALKYRETLFPAAGRWEKLLFVFSKLIAARAILEHHHHHH | soluble
MRDTMEILRTENIVKYFGEFKALDGVSISVNKGDVTLIIGPNGSGKSTLINVITGFLKADEGRVYFENKDITNKEPAELYHYGIVRTFQTPQPLKEMTVLENLLIGEINPGESPLNSLFYKKWIPKEEEMVEKAFKILEFLKLSHLYDRKAGELSGGQMKLVEIGRALMTNPKMIVMDQPIAGVAPGLAHDIFNHVLELKAKGITFLIIEHRLDIVLNYIDHLYVMFNGQIIAEGRGEEEIKNVLSDPKVVEIYIGE | soluble
MNEIYDREQMIKLLDLAKNTEMELPINLAIGLGLRISEVLGLTWDNIDFEENTITVNKITSRINGSVILKEPKTESSVRKISSPKELMSLLKEYKIKQNKNLLKSSIRNNNNLLFFNKKCEPIAEDVMSKKFKRFLEKNELPHIRFHDLRHSHVTLLINSKVPIKVISERVGHSNISTTLSVYSHVLKEMDKEASDKISESLFNANLEHHHHHH | not soluble
MYRVLLSGAAGSGKGTIARMLVREFEPLGFNYFAAGDFIRDHIARGTEFGVRAQSFLNKGEHVPDSILNGAILAEMLKAGPRVVLDGYPRNMSQLKMVEEQAPLNLIVELKVPRKVLIDRLSKQLVHPASGRAYNLEVNPPKEEGKDDITGEPLFKRSTDQLEVARRRLEVYDKTENKVLDYYKKQNKCITMSGESSKAVFESVAEVMRRDLLTTTPRTAYA | not soluble
MSKPEFIARQGRKPTGWLGHIVARVMARETRPENDRALSFLDLADGDSLIDIGCGHGETLFQADRIVRLSGSVGVDFSEVMLKRARARNRDAVWDTRMAFHCADTAALPFPDKRFGKALSVHTIYFWPNPAAHLAEAFRVLRRGGRFLFCYRSTADRRAVEEFPDTVYRFPSVQEVEEKLKLVGFLGPETTTEDIKGLEHHHHHH | not soluble
MTKFNWHESAEKKWDSSAEFWNQNSQEMWDSGSRSTIIPFFEQYVKKEAQVLDVGCGDGYGTYKLSSAGYKAVGVDLSEVMIQKGKERGEGPNLSFIKGDLSALPFENEQFESIMAINSLEWTEEPLRALNEIKRVLKKDGYACIAILGPTAKPRENSYLRLYGKDVVCNTMMPWEFEQLAKEQGFKVIDGIGVYKRGVNEKMLGQLPTELQQSLTFLWVFMLKNV | not soluble
MGSDKIHHHHHHMKLGTQNQAFFPENIEEKFAYVKEMGFEGFEIDGKLLVENLDEVKKAIEKTGLPVSTACGGYDGWIGDFIEERRLNGLEEIKAILEALAEVGGQGIVVPAAWGMFTYRLPPMVSPRSQAGDFKAVSESLVYLDKIAGETGTKVYLEPLNRYQDHMINLLSDAQKYIDENELKNVEIIADFYHMNIEEDSIPTVLETYKDSIGHIHVADNHRYQPGSGSLDFKTSFDQLKKNGYNGFLTFECRVRSENPEQAYKDALAHLKSCLI | not soluble
MGSDKIHHHHHHMPMNIVQVIPSFNVGGGELLAVRLCAEIKNQRPDYKVTLISLYDPIPSIVYDEALASDAQIVTLGKKKGFDPFTPLRMLKTLRAIKPDVIHTHLAGLRYTLLAGVLGNYSLKVHTVHNLATHETFGFLKNVHRVAFKFFSWIPVSLSKEVQDSVRDMYCLESVIVNNGIKTNSEIINKSKEDIRKHYGLPLNSKIIITIGRLCTQKNQLLLIESFNKVCKNAENYTLLIVGEDNLNGSYKNKIDKIISELPDITRENLHLLGPRKDIPELLIASDVFVLSSDWEGVPLTLLEAMGYGTPVVCTSVGGIPDVIEHGFDGLLVSKGDSKSLGNAIIEVLSNNSFASSLAHNARKKFSQLYSIEMTAEKYLQLYNA | not soluble
MAHHHHHHMLTNLRFLELQKLLLKRFQIFKNEEITILKKDSMKTILNEWAEFLTKEQKGTNITHIPDEVLQNKKVADILRDDIECRWLVGRINVGNNQESPVGTNDVNSSCSAALARKGTALSKIDQLHFDEYPNLFHYEYPQFPYNYYDKKKMENFYSLLKFPYNDILKISKMIKRDVISPSGNAEEGEILQQGGKAQSEVLESTHVDVVNDDFMNYSSNSYVYAPSEMETSKENYHE | not soluble
MGSDKIHHHHHHMGNVASSEVINQLEAWYQAIKRLQLAEATTIKHEVMQAIDGMDQDRKVFLYYHLIDSRYHLLIHQWDYAGAILKGLKAQVELKETDKLLRYYYYFFSGLYEFHTKQYIEAIHFYRLAESLLKDIPDDIEQAEFNYQLAVAYYEIDQHFVSMDHAEKALELYLQNDQYKNRVATTQMIVAANQLDLYQFASAEALYKNAIELASDVQDFFVKGMGYYNLGVCYDRQDKLDLARECFESALYVDLPKSQYQGVMVGTKYMLARVLFKQGILEEGMHWFEEAKALADEMKDASYQAKLSTIHSIYKERDEVEIDDGLRVLKEGKLWSDVFELAINAARHFQEKEDYSLAAKYFDEGLVAKDQIKAWKEDTAST | not soluble
